In general, stoichiometry N refers to the number of molecules, sites or subunits per partner or assembly.

Our source for the stoichiometry N values is doi:10.1101/2023.03.10.532002.

“And” between values parts separate entries of the source, which are not always exact repeats. Identical values can stand only once.

Common to all, as to conditions: remark: other sources report otherwise
The target of assay [1] is T1, human arachidonate 12S-Lipoxygenase (12-LOX) (human), P18054.
T1 chain: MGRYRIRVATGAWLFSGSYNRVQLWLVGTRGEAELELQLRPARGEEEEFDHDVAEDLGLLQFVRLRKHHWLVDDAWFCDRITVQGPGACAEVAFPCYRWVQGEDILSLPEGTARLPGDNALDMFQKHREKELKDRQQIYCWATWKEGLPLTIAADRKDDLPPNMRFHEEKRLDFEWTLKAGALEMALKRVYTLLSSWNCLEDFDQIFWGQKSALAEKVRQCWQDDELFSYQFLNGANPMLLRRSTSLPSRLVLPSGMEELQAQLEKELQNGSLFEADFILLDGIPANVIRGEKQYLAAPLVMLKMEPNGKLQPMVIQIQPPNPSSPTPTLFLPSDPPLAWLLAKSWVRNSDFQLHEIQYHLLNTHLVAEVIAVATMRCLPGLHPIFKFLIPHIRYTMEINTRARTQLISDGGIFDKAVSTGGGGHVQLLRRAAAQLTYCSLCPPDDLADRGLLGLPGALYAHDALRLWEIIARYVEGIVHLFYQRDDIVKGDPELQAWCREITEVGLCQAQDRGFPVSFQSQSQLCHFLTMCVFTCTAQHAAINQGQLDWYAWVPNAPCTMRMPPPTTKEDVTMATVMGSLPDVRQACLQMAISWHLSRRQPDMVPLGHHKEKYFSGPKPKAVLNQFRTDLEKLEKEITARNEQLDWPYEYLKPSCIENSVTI
As to the kind of experiment: cryo-EM structure.

The target in assay [2] is T1, human arachidonate 12S-Lipoxygenase …. As to the kind of experiment: cryo-EM structure.
For assay [3] the target is unchanged. As to the kind of experiment: cryo-EM structure.
For assay [4] the target is unchanged. The experiment in a line: SEC.

B1: human arachidonate 12S-Lipoxygenase (12-LOX), P18054 1-663 (enzyme)
chain: T1 chain
B1: the stoichiometry N in assay [1] was 4; in assay [2], 2 and 4 and 6; in assay [3], 4; in assay [4] it was 2 and 4.
